Experiments:
[1] = target: recombinant human FcγRIIb protein (human) (UniProt P31994); assay: Biacore
[2] = target: FcγRIIaR (human) (UniProt P12318); assay: Biacore
Sequence of FcγRIIaR (human) (P12318 34-217 H167R limits assumed): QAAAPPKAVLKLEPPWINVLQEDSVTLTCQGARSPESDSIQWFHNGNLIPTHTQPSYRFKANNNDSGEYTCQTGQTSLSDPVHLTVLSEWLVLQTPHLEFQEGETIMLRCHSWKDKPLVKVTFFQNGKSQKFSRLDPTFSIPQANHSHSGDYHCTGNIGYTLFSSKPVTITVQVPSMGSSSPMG

Sequence of recombinant human FcγRIIb protein (human) (P31994 46-217 limits assumed): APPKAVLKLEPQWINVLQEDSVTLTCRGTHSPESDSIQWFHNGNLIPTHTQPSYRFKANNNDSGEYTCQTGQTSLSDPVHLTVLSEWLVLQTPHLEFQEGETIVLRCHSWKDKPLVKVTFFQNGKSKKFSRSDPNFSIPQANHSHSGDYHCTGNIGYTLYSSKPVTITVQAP

Row | Substance | Fold [1] | Kd [1] [nM] | Fold [2] | Kd [2] [nM]
1 | A327G (antibody) | 0.353 | 4160 | 0.319 | 2690
2 | A330K (antibody) | 1.55 | 947 | – | –
3 | A330S (antibody) | 0.0635 | 23100 | – | –
4 | G236A/G237A (antibody) | 0.0578 | 25400 | – | –
5 | G236D/H268D (antibody) | 11.6 | 126 | – | –
6 | G236E/S267E (antibody) | 11.4 | 129 | 36.5 | 23.5
7 | G236F (antibody) | 0.0147 | 100000 | 0.00859 | 100000
8 | G236Q (antibody) | 0.147 | 10000 | 0.0859 | 10000
9 | G237K (antibody) | 0.0147 | 100000 | 0.00859 | 100000
10 | G237Q (antibody) | 0.147 | 10000 | 0.0859 | 10000
11 | G237S (antibody) | 0.147 | 10000 | 0.081 | 10600
12 | G237Y (antibody) | 0.33 | 4450 | 0.902 | 952
13 | H268D/A327D (antibody) | 7.68 | 191 | – | –
14 | H268D/L328W/I332E (antibody) | 39.8 | 36.9 | – | –
15 | H268E/L328Y/I332E (antibody) | 8.53 | 172 | – | –
16 | H268N (antibody) | 1.17 | 1250 | 1.79 | 481
17 | H268Q (antibody) | – | – | 1.58 | 544
18 | L234E/H268D (antibody) | 5.89 | 249 | – | –
19 | L234W/H268D/L328Y (antibody) | 5.92 | 248 | – | –

Row | Substance | Fold [1] | Kd [1] [nM] | Fold [2] | Kd [2] [nM]
20 | L235D/S239D (antibody) | 4.11 | 357 | – | –
21 | L235F/H268D/L328Y (antibody) | 3.97 | 370 | – | –
22 | L235Q (antibody) | – | – | 2.04 | 420
23 | L235S/S267E (antibody) | – | 37800 | – | –
24 | L235Y/S267D (antibody) | 15.9 | 92.2 | – | –
25 | P331S (antibody) | 0.0372 | 39400 | – | –
26 | S239D/H268D (antibody) | 14.4 | 102 | – | –
27 | S239D/H268D/L328F/I332E (antibody) | 53.2 | 27.6 | – | –
28 | S239D/H268D/L328Y (antibody) | 24.4 | 60.1 | – | –
29 | S239D/H268E/L328Y (antibody) | 21.7 | 67.7 | – | –
30 | S239D/K326D/L328Y (antibody) | 13 | 113 | – | –
31 | S239D/L328F/I332E (antibody) | 8.34 | 176 | – | –
32 | S239D/L328Y (antibody) | 5.56 | 264 | – | –
33 | S239D/L328Y/I332E (antibody) | 7.41 | 198 | – | –
34 | S239D/S267D (antibody) | 22.3 | 65.9 | – | –
35 | S239D/S267E/I332E (antibody) | 124 | 11.8 | – | –
36 | S267A/L328Y/I332E (antibody) | 13.5 | 109 | – | –
37 | S267D/A327D (antibody) | 6.89 | 213 | – | –

Other lines, results leading:

Row | Fold [1] | Kd [1] [nM] | Fold [2] | Kd [2] [nM] | Substance
38 | 2.31 | 636 | – | – | A327D/L328Y/I332E (antibody)
39 | 0.011 | 134000 | 0.634 | 1350 | A327Q (antibody)
40 | 0.417 | 3520 | 0.307 | 2790 | D265E (antibody)
41 | – | – | 0.135 | 6350 | G236H (antibody)
42 | 0.0147 | 100000 | 0.00859 | 100000 | G236K (antibody)
43 | 0.147 | 10000 | 0.0859 | 10000 | G236M (antibody)
44 | 0.147 | 10000 | 0.0859 | 10000 | G236P (antibody)
45 | 0.0147 | 100000 | 0.00859 | 100000 | G236R (antibody)
46 | 0.0797 | 18400 | – | – | G236S/G237A (antibody)
47 | 0.0147 | 100000 | 0.106 | 8080 | G236V (antibody)
48 | 0.147 | 10000 | 0.0859 | 10000 | G236W (antibody)
49 | 0.0147 | 100000 | 0.00859 | 100000 | G237E (antibody)
50 | 0.0147 | 100000 | 0.00859 | 100000 | G237P (antibody)
51 | 0.147 | 10000 | 0.0342 | 25100 | G237V (antibody)
52 | 3.49 | 420 | – | – | H268D/A327D/L328Y (antibody)
53 | 18.6 | 78.9 | – | – | H268D/K326D/L328Y (antibody)
54 | 12.3 | 119 | – | – | H268D/L328F/I332E (antibody)
55 | 1.91 | 767 | – | – | H268D/L328Y (antibody)
56 | 4.89 | 300 | – | – | H268D/L328Y/I332E (antibody)
57 | 2.65 | 553 | – | – | K326D/L328Y/I332E (antibody)

Row | Fold [1] | Kd [1] [nM] | Fold [2] | Kd [2] [nM] | Substance
58 | 6.09 | 241 | – | – | K326E (antibody)
59 | 3.04 | 483 | – | – | K326W (antibody)
60 | 5.11 | 287 | 0.728 | 1180 | L234D/G236N/S267E (antibody)
61 | 6.32 | 232 | – | – | L234W/L328Y/I332E (antibody)
62 | 32.8 | 44.8 | – | – | L234W/S239D/L328Y (antibody)
63 | 3.31 | 443 | – | – | L235F/L328Y/I332E (antibody)
64 | 6.82 | 215 | – | – | L235F/S239D/L328Y (antibody)
65 | 2.08 | 705 | – | – | L328Y/I332E (antibody)
66 | 11.9 | 123 | – | – | S239D/A327D/L328Y (antibody)
67 | 8.79 | 167 | – | – | S239D/H268D/L328F (antibody)
68 | 51.1 | 28.7 | – | – | S239D/H268D/L328W (antibody)
69 | 27.8 | 52.7 | – | – | S239D/H268D/L328W/I332E (antibody)
70 | 54.1 | 27.1 | – | – | S239D/H268D/L328Y/I332E (antibody)
71 | 19.8 | 74.1 | – | – | S239D/S267A/L328Y (antibody)
72 | 10.7 | 137 | – | – | S267A/H268D/L328Y (antibody)
73 | 12.1 | 121 | – | – | S267D/A327E (antibody)
74 | 14.2 | 103 | – | – | S267D/H268D (antibody)
75 | 17.8 | 82.6 | – | – | S267D/H268E (antibody)
76 | 33.3 | 44 | – | – | S267E/H268D (antibody)
77 | 12.1 | 121 | – | – | S267E/L328Q (antibody)
